In this data set the test system is HUH7 hepatocellular carcinoma cell line. Description: OTC protein expression in transfected HUH7 cells, Western blot. It counts as cell-based, human. Particulars: FIGS. 14-15. From the text: The wt-hOTC was codon-optimized (CO) with different algorithms. The optimization process is aimed at improving translation and stability of the OTC mRNA by changing the nucleotide sequence while keeping the amino acid primary sequence unvaried. The wild-type OTC cDNA sequence and the codon-optimized (CO) LW4 sequence from WO 2015/138357 patent A2 (Wang L., Wilson J. M.) were also synthesized, to be used as comparison control (CO1). The nucleotide sequence of the different CO cDNAs differs with a range of 30-20% from the WT cDNA sequence. The vectors were then packaged into the AAV8 serotype and used to transduce Huh7 cells. Huh7 cells, co-transfected with the OTC constructs and the pGG2-eGFP plasmid (to normalize for transfection efficiency), were used to generate total RNA and proteins. mRNA, protein, and activity levels were analyzed using qRT-PCR and Western blotting.
The human hepatocellular carcinoma cell line HUH7 was used to evaluate the expression levels of AAV8-hOTC-CO constructs. The AAV8-hOTC-CO1 (C01), AAV8-hOTC-CO2 (CO2), AAV8-hOTC-CO3 (CO3), AAV8-hOTC-006 (CO6), AAV8-hOTC-CO7 (CO7), AAV8-hOTC-009 (CO9) construct plasmids, together with a pGFP plasmid as an internal control, were transiently co-transfected in HUH7 cells with Lipofectamine (Lipofectamine 2000, Thermo Fisher Scientific). Twenty-four hours post-transfection, total protein lysates were prepared and analyzed for OTC expression by Western blot analysis.

Results on three molecules are retold here after patent US20200038462A1, “METHODS AND COMPOSITIONS OF OTC CONSTRUCTS AND VECTORS” (priority 2018, published 2020).

B1: CO9-1: hOTC construct; CO9 re-optimized by GeneArt, SEQ ID NO:9 (nucleic acid)
DNA: GTCGACGCCGCCACCATGCTGTTTAATCTGAGAATCCTGCTGAACAATGCTGCTTTCCGCAATGGGCACAACTTTATGGTCCGAAACTTCCGATGTGGACAGCCTCTGCAGAACAAGGTGCAGCTGAAGGGCCGGGACCTGCTGACCCTGAAGAATTTCACAGGCGAGGAGATCAAATACATGCTGTGGCTGAGCGCCGATCTGAAGTTTAGGATCAAGCAGAAGGGCGAGTATCTGCCACTGCTGCAGGGCAAGTCCCTGGGCATGATCTTCGAGAAGCGGAGCACCCGGACAAGACTGAGCACCGAGACAGGATTCGCACTGCTGGGAGGACACCCATGCTTTCTGACAACACAGGACATCCACCTGGGCGTGAACGAGTCTCTGACCGACACAGCACGGGTGCTGAGCTCCATGGCAGATGCCGTGCTGGCCAGAGTGTACAAGCAGAGCGACCTGGATACCCTGGCCAAGGAGGCCTCCATCCCCATCATCAATGGCCTGTCTGACCTGTATCACCCAATCCAGATCCTGGCCGATTACCTGACCCTGCAGGAGCACTATTCTAGCCTGAAGGGCCTGACACTGAGCTGGATCGGCGACGGCAACAATATCCTGCACAGCATCATGATGTCCGCCGCCAAGTTTGGAATGCACCTGCAGGCAGCAACCCCAAAGGGATACGAGCCCGATGCCTCCGTGACAAAGCTGGCCGAGCAGTATGCCAAGGAGAACGGCACCAAGCTGCTGCTGACAAATGACCCACTGGAGGCAGCACACGGAGGAAACGTGCTGATCACCGATACATGGATCTCTATGGGCCAGGAGGAGGAGAAGAAGAAGCGGCTGCAGGCCTTCCAGGGCTACCAGGTGACCATGAAGACAGCCAAGGTGGCCGCCTCTGATTGGACCTTTCTGCACTGTCTGCCCCGGAAGCCTGAGGAGGTGGACGATGAGGTGTTCTATTCCCCTCGGAGCCTGGTGTTCCCAGAGGCAGAGAATCGCAAGTGGACAATCATGGCCGTGATGGTCTCCCTGCTGACTGACTACTCCCCACAGCTGCAGAAGCCCAAGTTTTGATAAGAATTC
B1: the “OTC protein expression levels compared to hOTC-wt (in words)” value is reported as “significantly reduced”.

B2: CO6-1: hOTC construct; CO6 re-optimized by GeneArt, SEQ ID NO:6 (nucleic acid)
DNA: GTCGACGCCGCCACCATGCTGTTCAACCTGCGGATCCTGCTGAACAACGCCGCCTTCAGAAACGGCCACAACTTCATGGTCCGAAACTTCAGATGCGGCCAGCCTCTGCAGAACAAGGTGCAGCTGAAGGGCAGAGATCTGCTGACCCTGAAGAACTTCACCGGCGAAGAGATCAAATACATGCTGTGGCTGAGCGCCGACCTGAAGTTCCGGATTAAGCAGAAGGGCGAGTACCTGCCACTGCTGCAGGGAAAGTCTCTGGGCATGATCTTCGAGAAGCGGAGCACCAGAACCAGACTGAGCACCGAGACAGGCTTTGCCCTGCTCGGAGGACACCCCTGCTTTCTGACAACACAGGATATCCACCTGGGCGTGAACGAGAGCCTGACCGATACAGCCAGAGTGCTGAGCAGCATGGCTGATGCCGTGCTGGCCAGAGTGTACAAGCAGAGCGATCTGGACACCCTGGCCAAAGAGGCCAGCATTCCCATCATCAACGGCCTGAGCGACCTGTATCACCCCATCCAGATCCTGGCCGACTACCTGACACTGCAAGAGCACTACAGCAGCCTGAAGGGACTGACCCTGTCTTGGATCGGCGACGGCAACAACATCCTGCACTCTATTATGATGAGCGCCGCCAAGTTCGGAATGCACCTGCAGGCCGCTACACCCAAGGGCTATGAGCCTGATGCCAGCGTGACAAAGCTGGCCGAGCAGTACGCCAAAGAGAACGGCACAAAGCTGCTGCTGACCAACGATCCCCTGGAAGCTGCCCACGGCGGCAATGTGCTGATCACCGATACCTGGATCTCTATGGGCCAAGAGGAAGAGAAGAAGAAGCGGCTGCAGGCCTTCCAGGGCTACCAAGTGACAATGAAGACCGCCAAGGTGGCCGCCAGCGATTGGACCTTTCTGCACTGCCTGCCTCGGAAGCCTGAAGAGGTGGACGACGAGGTGTTCTACAGCCCTAGAAGCCTGGTGTTCCCCGAGGCCGAGAACAGAAAGTGGACCATCATGGCTGTGATGGTGTCCCTGCTGACCGACTACTCTCCCCAGCTGCAGAAGCCCAAGTTCTGATAAGAATTC
On to B2, for which the “OTC protein expression levels compared to hOTC-wt (in words)” value was “significantly reduced”.

B3: CO9-2: hOTC construct; CO9 re-optimized by IDT, SEQ ID NO:10 (nucleic acid)
DNA: GTCGACGCCGCCACCATGCTCTTCAATCTCCGAATACTCCTGAATAATGCGGCATTCAGAAATGGGCACAATTTTATGGTGCGAAATTTTCGATGTGGGCAGCCCTTGCAAAATAAAGTACAACTTAAAGGCAGAGATCTTCTTACGCTCAAAAACTTTACCGGCGAAGAGATTAAGTATATGTTGTGGCTGTCTGCTGACCTTAAATTCCGAATAAAACAGAAAGGCGAATACCTTCCGCTCCTCCAAGGGAAATCTCTTGGGATGATTTTCGAGAAGAGATCTACGCGCACGCGGCTTTCAACGGAAACTGGATTCGCACTCTTGGGCGGCCACCCATGTTTTCTGACTACTCAAGATATTCACTTGGGAGTAAATGAGTCACTTACTGACACGGCAAGAGTGCTCTCTAGCATGGCTGATGCAGTGCTGGCTAGAGTCTATAAACAATCCGACCTGGATACACTCGCCAAGGAAGCTTCAATACCAATAATCAACGGGTTGTCTGACTTGTACCACCCTATCCAAATCTTGGCCGATTATTTGACACTCCAGGAACACTACTCAAGTCTGAAGGGACTTACGCTTAGCTGGATAGGTGATGGTAACAACATCCTTCATAGCATTATGATGTCAGCCGCCAAATTCGGCATGCATCTGCAAGCAGCGACTCCCAAGGGCTATGAGCCTGATGCCTCAGTCACCAAACTGGCGGAGCAGTACGCTAAAGAGAATGGGACGAAGCTTTTGCTGACGAACGATCCCCTGGAGGCGGCTCACGGGGGAAATGTGCTTATCACGGATACCTGGATAAGTATGGGGCAGGAGGAAGAAAAAAAAAAGCGATTGCAAGCCTTTCAAGGTTACCAGGTTACAATGAAAACTGCGAAAGTCGCCGCATCTGACTGGACTTTTCTGCACTGTCTTCCGAGAAAGCCGGAAGAGGTGGACGACGAAGTGTTCTACTCTCCGCGCTCTCTCGTGTTTCCTGAAGCAGAGAACCGAAAGTGGACCATAATGGCGGTAATGGTCAGCCTCTTGACTGATTATTCCCCTCAGCTGCAGAAGCCAAAGTTTTGATAAGAATTC
For the molecule B3, the “OTC protein expression levels compared to hOTC-wt (in words)” value is recorded as “significantly reduced”.
